Test results: patent WO2001085789A2 (dated 2001)

What was measured:
Ryk-Fc fusion protein [1] = target: T1, Ryk-Fc fusion protein (human); assay: SPR, BIACORE 2000, 25 C; scFv 1B4 amine coupled to CM5 chip, Ryk-Fc 30 to 242 nM injected; global fit A + B = AB
T1 chain: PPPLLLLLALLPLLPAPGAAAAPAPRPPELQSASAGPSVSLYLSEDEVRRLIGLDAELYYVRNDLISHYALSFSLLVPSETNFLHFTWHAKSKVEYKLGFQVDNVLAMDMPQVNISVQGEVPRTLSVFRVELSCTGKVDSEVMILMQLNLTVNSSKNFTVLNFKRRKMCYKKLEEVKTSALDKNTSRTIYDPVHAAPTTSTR

Ryk-Fc fusion protein [2] = target: T1, Ryk-Fc fusion protein; assay: SPR, BIACORE 2000, 25 C; scFv 1B4 amine coupled to CM5 chip, Ryk-Fc 30 to 242 nM injected; KD = koff/kon

B1: anti-Ryk scFv 1B4 antibody (scFv, V domains shown)
VH: EVQLVQSGAEVKKPGSSVKVSCKASGGTFSSYAISWVRQAPGQGLEWMGGIIPIFGTANYAQKFQGRVTITADESTSTAYMELSSLRSEDTAVYYCARSYYDWFDYWGQGTLVTVSS
VL: IVLTQPPSVSGAPGQRVTISCSGSSSNIGSNYVSWYQQLPGTAPKLLIYDNNQRPSGVPDRFSGSKSGTSASLAITGLQSEDEADYYCQSWDSIAQIVFGGGTKLTVL
For B1, which koff (Ryk-Fc fusion protein [1]) is on record?
Its koff is 0.00067 s⁻¹.

And the kon (Ryk-Fc fusion protein [1])?
Its kon is 50000 M⁻¹ s⁻¹.

And the Kd (Ryk-Fc fusion protein [2])?
The Kd was 13.3 nM.
